Where “and” joins values, the source holds several entries; their conditions need not be identical. Equal values may be shown once.
B1: Phosphoglycerate kinase, P18912 (parent)
chain: MNKKTIRDVDVRGKRVFCRVDFNVPMEQGAITDDTRIRAALPTIRYLIEHGAKVILASHLGRPKGKVVEELRLDAVAKRLGELLERPVAKTNEAVGDEVKAAVDRLNEGDVLLLENVRFYPGEEKNDPELAKAFAELADLYVNDAFGAAHRAHASTEGIAHYLPAVAGFLMEKELEVLGKALSNPDRPFTAIIGGAKVKDKIGVIDNLLEKVDNLIIGGGLAYTFVKALGHDVGKSLLEEDKIELAKSFMEKAKEKGVRFYMPVDVVVADRFANDANTKVVPIDAIPADWSALDIGPKTRELYRDVIRESKLVVWNGPMGVFEMDAFAHGTKAIAEALAEALDTYSVIGGGDSAAAVEKFGLADKMDHISTGGGASLEFMEGKQLPGVVALEDK

Variants of: B1
Details: Geobacillus stearothermophilus, pH 7.5, 25 °C, Fluorescence, TEA 50 mM, reversible: yes, structure 1PHP, whole UniProt chain shown

Variant | unfolding free energy (GdnHCl, transition: 3) | unfolding free energy (Urea, transition: 3) [kcal/mol] | unfolding free energy (GdnHCl, transition: 4) | unfolding free energy (Urea, transition: 4)
W290Y | 11.4 kcal/mol and 8.2 kcal/mol | 8.15 | – | –
W290Y W315Y F379W | – | – | 4.95 kcal/mol and 10.8 kcal/mol and 8.93 kcal/mol | 3.77 kcal/mol and 10.8 kcal/mol and 8.15 kcal/mol

Source: FireProtDB (doi:10.1021/bi00066a003)
